# Source: IntAct's records for PubMed 12869544
# B1: Translocase of chloroplast 33, chloroplastic (Arabidopsis thaliana (Mouse-ear cress)), O23680 (parent)
# chain: MGSLVREWVGFQQFPAATQEKLIEFFGKLKQKDMNSMTVLVLGKGGVGKSSTVNSLIGEQVVRVSPFQAEGLRPVMVSRTMGGFTINIIDTPGLVEAGYVNHQALELIKGFLVNRTIDVLLYVDRLDVYRVDELDKQVVIAITQTFGKEIWCKTLLVLTHAQFSPPDELSYETFSSKRSDSLLKTIRAGSKMRKQEFEDSAIAVVYAENSGRCSKNDKDEKALPNGEAWIPNLVKAITDVATNQRKAIHVDKKMVDGSYSDDKGKKLIPLIIGAQYLIVKMIQGAIRNDIKTSGKPL
# Variants of: B1
# Conditions: with tc159_arath TOC159, O81283
# Chain of tc159_arath TOC159, O81283 (O81283 whole entry): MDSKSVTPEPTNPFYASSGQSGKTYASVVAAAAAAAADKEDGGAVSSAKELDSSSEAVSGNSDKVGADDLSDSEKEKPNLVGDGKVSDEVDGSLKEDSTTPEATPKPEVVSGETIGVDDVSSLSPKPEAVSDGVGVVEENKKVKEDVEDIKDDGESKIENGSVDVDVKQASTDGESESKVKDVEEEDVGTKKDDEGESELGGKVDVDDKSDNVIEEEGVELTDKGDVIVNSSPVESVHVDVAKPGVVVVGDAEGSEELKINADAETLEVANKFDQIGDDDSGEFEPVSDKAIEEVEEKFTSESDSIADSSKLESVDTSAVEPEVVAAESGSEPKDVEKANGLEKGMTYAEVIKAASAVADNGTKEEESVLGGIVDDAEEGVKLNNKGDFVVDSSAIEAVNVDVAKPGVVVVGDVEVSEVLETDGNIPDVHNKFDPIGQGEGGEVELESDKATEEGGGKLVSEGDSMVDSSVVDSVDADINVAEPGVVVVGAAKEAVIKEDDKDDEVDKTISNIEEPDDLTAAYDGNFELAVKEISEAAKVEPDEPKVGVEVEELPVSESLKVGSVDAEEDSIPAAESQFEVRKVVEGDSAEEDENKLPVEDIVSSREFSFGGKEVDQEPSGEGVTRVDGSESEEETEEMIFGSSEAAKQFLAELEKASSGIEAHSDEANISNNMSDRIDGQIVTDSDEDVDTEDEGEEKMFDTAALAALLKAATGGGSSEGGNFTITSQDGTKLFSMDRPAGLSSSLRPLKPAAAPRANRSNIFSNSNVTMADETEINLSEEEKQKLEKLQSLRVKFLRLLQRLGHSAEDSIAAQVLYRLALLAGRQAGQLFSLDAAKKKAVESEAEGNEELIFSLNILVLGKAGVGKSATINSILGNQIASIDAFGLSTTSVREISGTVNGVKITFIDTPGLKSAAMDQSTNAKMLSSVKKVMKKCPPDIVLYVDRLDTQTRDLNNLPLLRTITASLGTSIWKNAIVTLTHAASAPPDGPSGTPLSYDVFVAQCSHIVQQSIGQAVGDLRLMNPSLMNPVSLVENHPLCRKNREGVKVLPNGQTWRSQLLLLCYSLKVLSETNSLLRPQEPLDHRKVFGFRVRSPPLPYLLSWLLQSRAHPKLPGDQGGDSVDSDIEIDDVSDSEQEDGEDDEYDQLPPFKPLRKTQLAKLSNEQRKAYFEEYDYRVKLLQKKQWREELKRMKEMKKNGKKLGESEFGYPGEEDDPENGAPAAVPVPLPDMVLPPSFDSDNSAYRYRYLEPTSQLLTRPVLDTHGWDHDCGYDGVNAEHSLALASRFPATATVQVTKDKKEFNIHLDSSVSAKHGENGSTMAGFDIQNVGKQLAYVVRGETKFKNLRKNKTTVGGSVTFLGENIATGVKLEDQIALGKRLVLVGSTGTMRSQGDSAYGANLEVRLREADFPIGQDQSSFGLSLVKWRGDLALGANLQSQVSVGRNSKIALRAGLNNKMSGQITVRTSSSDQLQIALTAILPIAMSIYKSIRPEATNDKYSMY
row,Variant,effect of a mutation on the interaction
1,R130A,decreasing interaction
